# From article PMC9811624 (The EMBO Journal, 2022)
# Like-named read-outs stand apart in the source and are kept apart here.
# T1: GST-OsCIPK7 (Oryza sativa (rice), UniProt Q75GK4 1-447)
# T1 sequence: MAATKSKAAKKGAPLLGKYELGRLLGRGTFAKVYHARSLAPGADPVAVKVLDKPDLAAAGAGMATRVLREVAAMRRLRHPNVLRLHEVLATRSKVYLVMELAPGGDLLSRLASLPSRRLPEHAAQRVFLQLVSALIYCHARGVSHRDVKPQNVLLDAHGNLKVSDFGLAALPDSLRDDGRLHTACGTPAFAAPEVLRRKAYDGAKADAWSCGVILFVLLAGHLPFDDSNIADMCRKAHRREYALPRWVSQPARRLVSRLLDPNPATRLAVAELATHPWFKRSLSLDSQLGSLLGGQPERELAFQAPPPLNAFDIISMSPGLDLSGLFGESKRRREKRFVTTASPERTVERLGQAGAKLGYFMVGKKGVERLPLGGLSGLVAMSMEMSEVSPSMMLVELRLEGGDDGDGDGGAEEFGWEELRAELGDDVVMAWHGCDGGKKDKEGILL
# B1: MBP-OsCBL8 (natural protein)
# chain: MGCVSSKQFKRAAQHEDPAILAKETTFSVSEVEALFELFKKISHSIFRDGLIHKEEFQLALFRNSNKKNLFANRIFDLFDLKRNGVIDFGEFVRSLSIFHPETPLGDKIAFAFRLYDLRGTGCIEREELHEMVLALLNESDLFLSEEAVEQIVDQTFKQADLNDDGKIDPDEWKTFASKNPALLKNMTLPYLKDITMVFPSFILNSEVCEEEL
# B2: MBP-OsCBL7 (natural protein)
# chain: MGCISSKQFKRAAEHEDPAILAKETTFSVSEVEALYELFKKISHSIFKDGLIHKEEFQLALFRNSNKKNLFADRIFDLFDLKRNGVIDFGEFVRSLNIFHPETPLAEKIAFAFRLYDLRGTGYIEREELYEMVLAILNESDLLLSDDAVEQIVDQTFKQADLNSDGKIDPDEWKAFASKNPALLKNMTLPYLKDITMAFPSFVLNSGVDDEEL
# Key:
# [1] = biological target: MBP-OsCRT3 (Oryza sativa (rice)); assay: SPR
# [2] = biological target: MBP-OsCBL8 (Oryza sativa (rice)) (UniProt Q3HRN9); assay: SPR
# [3] = biological target: MBP-OsCRT3 (Oryza sativa (rice)); assay: SPR; remark: listed apart in the source
# [4] = biological target: MBP-OsCBL8 (Oryza sativa (rice)) (UniProt Q3HRN9); assay: SPR; remark: listed apart in the source
# GST-OsCIPK7 = biological target: T1, GST-OsCIPK7; assay: pull-down
Molecule,Kd [1],koff [1],kon [1],Kd [2],Kd [3],koff [3],kon [3],Kd [4],binding result (GST-OsCIPK7)
GST-OsCIPK7-C (domain or fragment),0.92 µM,0.00077 s⁻¹,684 M⁻¹ s⁻¹,0.34 µM,6.49 µM,0.00157 s⁻¹,256 M⁻¹ s⁻¹,0.39 µM,
B1,,,,,,,,,binds
B2,,,,,,,,,binds
